Assay [1] addresses T1, pig-type ligand peptide (1-60) (SEQ ID NO: 31) (Sus scrofa, UniProt Q9TT95).
T1 construct: made in house
T1 sequence (Q9TT95 23-82): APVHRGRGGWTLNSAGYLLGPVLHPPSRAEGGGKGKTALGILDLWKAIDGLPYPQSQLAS
Briefly: Competitive EIA of monoclonal antibodies against pig-type ligand peptide. As to conditions: B/B0 in the presence of 100 nM immunogen; HRP-labeled SEQ ID NO: 44. Format: binding.

The target in assay [2] is T2, rat-type galanin (SEQ ID NO: 61) (Rattus norvegicus, UniProt P10683).
T2 sequence (P10683 33-61 limits assumed): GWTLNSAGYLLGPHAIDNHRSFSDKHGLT
Briefly: Competitive EIA of monoclonal antibodies against rat galanin. It counts as binding. As to conditions: B/B0 in the presence of 100 nM immunogen; HRP-labeled SEQ ID NO: 44.

B1: 3 (protein)
chain: MADIQNISLDSPGSVGAVAVPVIFALIFLLGMVGNGLVLAVLLQPGPSAWQEPSSTTDLFILNLAVADLCFILCCVPFQAAIYTLDAWLFGAFVCKTVHLLIYLTMYASSFTLAAVSLDRYLAVRHPLRSRALRTPRNARAAVGLVWLLAALFSAPYLSYYGTVRYGALELCVPAWEDARRRALDVATFAAGYLLPVAVVSLAYGRTLCFLWAAVGPAGAAAAEARRRATGRAGRAMLAVAALYALCWGPHHALILCFWYGRFAFSPATYACRLASHCLAYANSCLNPLVYSLASRHFRARFRRLWPCGRRRHRHHHRAHRALRRVQPASSGPAGYPGDARPRGWSMEPRGDALRGGGETRLTLSPRGPQ
modifications: Rat
As for B1, in assay [1], the “Reactivity Pig Ligand (SEQ ID NO: 31)” value is given as “± (0.50 ≦ (B/B0) < 0.80)”. For the same molecule, the “Reactivity Rat Galanin (SEQ ID NO: 61)” value in assay [2] is recorded as “− (0.80 ≦ (B/B0))”.

B2: 6 (protein)
chain: MADIQNISLDSPGSVGAVAVPVIFALIFLLGMVGNGLVLAVLLQPGPSAWQEPSSTTDLFILNLAVADLCFILCCVPFQAAIYTLDAWLFGAFVCKTVHLLIYLTMYASSFTLAAVSLDRYLAVRHPLRSRALRTPRNARAAVGLVWLLAALFSAPYLSYYGTVRYGALELCVPAWEDARRRALDVATFAAGYLLPVAVVSLAYGRTLCFLWAAVGPAGAAAAEARRRATGRAGRAMLAVAALYALCWGPHHALILCFWYGRFAFSPATYACRLASHCLAYANSCLNPLVYSLASRHFRARFRRLWPCGRRRHRHHHRAHRALRRVQPASSGPAGYPGDARPRGWSMEPRGDALRGGGETRLTLSPRGPQ
modifications: Rat
As for B2, the “Reactivity Pig Ligand (SEQ ID NO: 31)” value in assay [1] is “+ ((B/B0) < 0.50)”. The “Reactivity Rat Galanin (SEQ ID NO: 61)” value in assay [2] is “− (0.80 ≦ (B/B0))”.

B3: 8 (protein)
chain: MPRGCALLLASLLLASALSATLGLGSPVKEKRGWTLNSAGYLLGPHAIDNHRSFHDKYGLAGKRELEPEDEARPGGFDRLQSEDKAIRTIMEFLAFLHLKEAGALGRLPGLPSAASSEDAGQS
modifications: Porcine
Turning to B3, the “Reactivity Pig Ligand (SEQ ID NO: 31)” value in assay [1] is reported as “− (0.80 ≦ (B/B0))”. For the same molecule, the “Reactivity Rat Galanin (SEQ ID NO: 61)” value in assay [2] is reported as “− (0.80 ≦ (B/B0))”.

B4: 2 (protein)
chain: MNGSGSQGAENTSQEGGSGGWQPEAVLVPLFFALIFLVGTVGNALVLAVLLRGGQAVSTTNLFILNLGVADLCFILCCVPFQATIYTLDDWVFGSLLCKAVHFLIFLTMHASSFTLAAVSLDRYLAIRYPLHSRELRTPRNALAAIGLIWGLALLFSGPYLSYYRQSQLANLTVCHPAWSAPRRRAMDLCTFVFSYLLPVLVLSLTYARTLRYLWRTVDPVTAGSGSQRAKRKVTRMIIIVAVLFCLCWMPHHALILCVWFGRFPLTRATYALRILSHLVSYANSCVNPIVYALVSKHFRKGFRKICAGLLRPAPRRASGRVSILAPGNHSGSMLEQESTDLTQVSEAAGPLVPPPALPNCTASSRTLDPAC
modifications: Rat
B4: the “Reactivity Pig Ligand (SEQ ID NO: 31)” value in assay [1] is reported as “+ ((B/B0) < 0.50)”. Also, in assay [2], the “Reactivity Rat Galanin (SEQ ID NO: 61)” value is on record as “− (0.80 ≦ (B/B0))”.

B5: 5 (protein)
chain: MNGSGSQGAENTSQEGGSGGWQPEAVLVPLFFALIFLVGTVGNALVLAVLLRGGQAVSTTNLFILNLGVADLCFILCCVPFQATIYTLDDWVFGSLLCKAVHFLIFLTMHASSFTLAAVSLDRYLAIRYPLHSRELRTPRNALAAIGLIWGLALLFSGPYLSYYRQSQLANLTVCHPAWSAPRRRAMDLCTFVFSYLLPVLVLSLTYARTLRYLWRTVDPVTAGSGSQRAKRKVTRMIIIVAVLFCLCWMPHHALILCVWFGRFPLTRATYALRILSHLVSYANSCVNPIVYALVSKHFRKGFRKICAGLLRPAPRRASGRVSILAPGNHSGSMLEQESTDLTQVSEAAGPLVPPPALPNCTASSRTLDPAC
modifications: Rat
Regarding B5, in assay [1], the “Reactivity Pig Ligand (SEQ ID NO: 31)” value was “± (0.50 ≦ (B/B0) < 0.80)”. In addition, the “Reactivity Rat Galanin (SEQ ID NO: 61)” value in assay [2] is given as “− (0.80 ≦ (B/B0))”.

B6: 1 (protein)
chain: MELAPVNLSEGNGSDPEPPAEPRPLFGIGVENFITLVVFGLIFAMGVLGNSLVITVLARSKPGKPRSTTNLFILNLSIADLAYLLFCIPFQATVYALPTWVLGAFICKFIHYFFTVSMLVSIFTLAAMSVDRYVAIVHSRRSSSLRVSRNALLGVGFIWALSIAMASPVAYYQRLFHRDSNQTFCWEHWPNQLHKKAYVVCTFVFGYLLPLLLICFCYAKVLNHLHKKLKNMSKKSEASKKKTAQTVLVVVVVFGISWLPHHVIHLWAEFGAFPLTPASFFFRITAHCLAYSNSSVNPIIYAFLSENFRKAYKQVFKCRVCNESPHGDAKEKNRIDTPPSTNCTHV
modifications: Rat
As to B6, the “Reactivity Pig Ligand (SEQ ID NO: 31)” value in assay [1] was “− (0.80 ≦ (B/B0))”. In assay [2], the “Reactivity Rat Galanin (SEQ ID NO: 61)” value was “− (0.80 ≦ (B/B0))”.

B7: 4 (protein)
chain: MELAPVNLSEGNGSDPEPPAEPRPLFGIGVENFITLVVFGLIFAMGVLGNSLVITVLARSKPGKPRSTTNLFILNLSIADLAYLLFCIPFQATVYALPTWVLGAFICKFIHYFFTVSMLVSIFTLAAMSVDRYVAIVHSRRSSSLRVSRNALLGVGFIWALSIAMASPVAYYQRLFHRDSNQTFCWEHWPNQLHKKAYVVCTFVFGYLLPLLLICFCYAKVLNHLHKKLKNMSKKSEASKKKTAQTVLVVVVVFGISWLPHHVIHLWAEFGAFPLTPASFFFRITAHCLAYSNSSVNPIIYAFLSENFRKAYKQVFKCRVCNESPHGDAKEKNRIDTPPSTNCTHV
modifications: Rat
Turning to B7, the “Reactivity Pig Ligand (SEQ ID NO: 31)” value in assay [1] was “+ ((B/B0) < 0.50)”. Besides, the “Reactivity Rat Galanin (SEQ ID NO: 61)” value in assay [2] is “− (0.80 ≦ (B/B0))”.
